Legend:
[1] = target: human FGFR2c on cells (human) (UniProt P21802); experiment: flow cytometry, human FGFR2c OE cells
[2] = target: human FGFR2b protein (recombinant, coated on ELISA plates) (human) (UniProt P21802); experiment: ELISA, plate-coated human FGFR2b

Chain of human FGFR2c on cells (human) (P21802 22-821): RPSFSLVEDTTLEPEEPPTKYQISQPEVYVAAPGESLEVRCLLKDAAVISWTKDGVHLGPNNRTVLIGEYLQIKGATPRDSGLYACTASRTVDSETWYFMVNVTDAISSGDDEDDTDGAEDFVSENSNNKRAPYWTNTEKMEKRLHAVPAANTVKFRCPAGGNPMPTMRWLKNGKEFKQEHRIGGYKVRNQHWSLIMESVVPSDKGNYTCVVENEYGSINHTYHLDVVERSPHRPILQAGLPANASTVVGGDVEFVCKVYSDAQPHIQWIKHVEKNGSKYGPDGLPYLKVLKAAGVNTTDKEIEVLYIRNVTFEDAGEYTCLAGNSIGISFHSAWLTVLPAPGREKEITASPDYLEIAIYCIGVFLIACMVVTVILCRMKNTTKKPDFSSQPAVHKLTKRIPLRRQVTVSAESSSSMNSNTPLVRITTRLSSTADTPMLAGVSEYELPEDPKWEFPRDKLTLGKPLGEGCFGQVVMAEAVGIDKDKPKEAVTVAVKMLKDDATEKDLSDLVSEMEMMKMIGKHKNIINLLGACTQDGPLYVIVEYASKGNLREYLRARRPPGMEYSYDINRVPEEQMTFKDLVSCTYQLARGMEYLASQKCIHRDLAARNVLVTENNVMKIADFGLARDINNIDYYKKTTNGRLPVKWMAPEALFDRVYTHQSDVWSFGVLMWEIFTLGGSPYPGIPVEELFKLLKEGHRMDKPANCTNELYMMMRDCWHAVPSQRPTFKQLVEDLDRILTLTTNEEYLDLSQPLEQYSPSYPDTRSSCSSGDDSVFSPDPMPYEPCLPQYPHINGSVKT

Substance Isotype IgG control CB-6 (antibody) has an Emax (MFI) [1] of 27 MFI and an Emax (OD450) [2] of 0.08 OD450.

Source: US20250222125A1, “Anti-FGFR2b Antibodies, Conjugates and Methods of Use” (BeiGene, Ltd., priority 2024, published 2025)
